Data: patent US9176064B2, “Bisubstrate fluorescent probes for protein kinase CK2” (University of Tartu, priority 2012, dated 2015)
Where a SMILES comes first, the peptide text is derived from it. [ ]: non-standard residue; d: D form. The star is where a group is joined. X1 = O=C(CCCCCCCn1cnc2c(Br)c(Br)c(Br)c(Br)c21)*

Legend:
Test in all cases: Kinase panel residual activity
Type in all cases: biochemical
Conditions in all cases: compound at 1 micromolar
ASK1 = molecular target: T1, ASK1 (Homo sapiens, UniProt Q99683)
T1 sequence (Q99683 1-1374): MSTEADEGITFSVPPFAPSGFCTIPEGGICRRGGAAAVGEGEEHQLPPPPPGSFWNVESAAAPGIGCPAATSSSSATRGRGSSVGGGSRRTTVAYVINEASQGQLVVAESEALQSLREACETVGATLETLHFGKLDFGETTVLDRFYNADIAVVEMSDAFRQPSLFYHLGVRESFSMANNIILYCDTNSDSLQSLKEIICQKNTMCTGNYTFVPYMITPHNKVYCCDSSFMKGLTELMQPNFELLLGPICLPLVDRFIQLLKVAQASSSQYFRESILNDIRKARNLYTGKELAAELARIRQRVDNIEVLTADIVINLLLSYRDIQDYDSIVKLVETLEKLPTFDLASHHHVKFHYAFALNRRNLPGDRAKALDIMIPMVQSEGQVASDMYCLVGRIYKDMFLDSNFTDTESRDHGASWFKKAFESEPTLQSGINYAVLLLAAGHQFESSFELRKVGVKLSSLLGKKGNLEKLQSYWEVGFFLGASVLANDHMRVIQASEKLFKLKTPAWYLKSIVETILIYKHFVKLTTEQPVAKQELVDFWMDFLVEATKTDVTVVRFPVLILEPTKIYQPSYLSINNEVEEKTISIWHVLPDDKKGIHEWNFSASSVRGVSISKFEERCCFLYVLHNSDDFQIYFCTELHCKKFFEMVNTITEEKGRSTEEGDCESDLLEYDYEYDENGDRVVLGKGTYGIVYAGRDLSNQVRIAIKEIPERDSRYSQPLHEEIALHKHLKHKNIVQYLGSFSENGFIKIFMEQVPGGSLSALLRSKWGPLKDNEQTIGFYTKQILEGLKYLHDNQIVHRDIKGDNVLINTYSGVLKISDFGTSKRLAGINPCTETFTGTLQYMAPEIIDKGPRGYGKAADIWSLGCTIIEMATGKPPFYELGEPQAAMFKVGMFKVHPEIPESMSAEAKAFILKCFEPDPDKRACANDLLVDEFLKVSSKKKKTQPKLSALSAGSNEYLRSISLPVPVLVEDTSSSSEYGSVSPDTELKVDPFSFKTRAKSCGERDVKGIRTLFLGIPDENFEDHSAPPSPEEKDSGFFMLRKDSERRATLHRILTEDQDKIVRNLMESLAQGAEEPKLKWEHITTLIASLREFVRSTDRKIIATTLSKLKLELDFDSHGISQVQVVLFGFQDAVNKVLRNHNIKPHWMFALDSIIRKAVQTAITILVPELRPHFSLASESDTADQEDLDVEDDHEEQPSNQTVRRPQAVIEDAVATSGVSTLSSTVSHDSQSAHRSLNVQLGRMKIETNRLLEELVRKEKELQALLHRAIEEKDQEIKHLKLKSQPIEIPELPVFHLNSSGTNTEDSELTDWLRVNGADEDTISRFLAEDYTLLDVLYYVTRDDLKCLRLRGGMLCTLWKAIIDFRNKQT

MKK2 = MKK2 (Homo sapiens, UniProt P36507)
Sequence of MKK2 (P36507 whole entry, species assumed): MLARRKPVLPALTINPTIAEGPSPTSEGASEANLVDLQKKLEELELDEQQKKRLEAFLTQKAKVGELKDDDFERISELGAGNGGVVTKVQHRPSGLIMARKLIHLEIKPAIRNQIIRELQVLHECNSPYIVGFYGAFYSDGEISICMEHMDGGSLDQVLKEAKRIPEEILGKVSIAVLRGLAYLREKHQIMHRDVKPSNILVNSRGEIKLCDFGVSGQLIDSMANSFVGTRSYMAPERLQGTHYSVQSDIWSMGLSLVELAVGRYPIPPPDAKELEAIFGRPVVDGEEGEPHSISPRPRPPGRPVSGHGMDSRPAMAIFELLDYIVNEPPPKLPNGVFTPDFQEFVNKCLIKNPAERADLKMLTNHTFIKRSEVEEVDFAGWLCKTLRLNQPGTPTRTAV

TGFBR1 = molecular target: T2, TGFBR1 (Homo sapiens, UniProt P36897)
T2 sequence (P36897 34-503): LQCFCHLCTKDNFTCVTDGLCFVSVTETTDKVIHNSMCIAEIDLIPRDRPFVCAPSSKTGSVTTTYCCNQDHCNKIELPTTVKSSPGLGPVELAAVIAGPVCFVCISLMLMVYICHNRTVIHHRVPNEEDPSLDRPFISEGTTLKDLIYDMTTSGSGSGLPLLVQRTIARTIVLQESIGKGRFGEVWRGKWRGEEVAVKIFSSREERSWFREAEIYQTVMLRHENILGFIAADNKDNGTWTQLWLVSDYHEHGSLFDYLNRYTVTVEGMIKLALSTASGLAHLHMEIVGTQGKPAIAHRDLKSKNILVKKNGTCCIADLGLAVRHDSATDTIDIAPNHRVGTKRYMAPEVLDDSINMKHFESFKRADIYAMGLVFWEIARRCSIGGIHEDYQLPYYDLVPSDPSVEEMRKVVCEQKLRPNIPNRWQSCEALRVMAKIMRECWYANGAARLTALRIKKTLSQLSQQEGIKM

BRSK2 = molecular target: T3, BRSK2 (Homo sapiens, UniProt Q8IWQ3)
T3 sequence (Q8IWQ3 1-736): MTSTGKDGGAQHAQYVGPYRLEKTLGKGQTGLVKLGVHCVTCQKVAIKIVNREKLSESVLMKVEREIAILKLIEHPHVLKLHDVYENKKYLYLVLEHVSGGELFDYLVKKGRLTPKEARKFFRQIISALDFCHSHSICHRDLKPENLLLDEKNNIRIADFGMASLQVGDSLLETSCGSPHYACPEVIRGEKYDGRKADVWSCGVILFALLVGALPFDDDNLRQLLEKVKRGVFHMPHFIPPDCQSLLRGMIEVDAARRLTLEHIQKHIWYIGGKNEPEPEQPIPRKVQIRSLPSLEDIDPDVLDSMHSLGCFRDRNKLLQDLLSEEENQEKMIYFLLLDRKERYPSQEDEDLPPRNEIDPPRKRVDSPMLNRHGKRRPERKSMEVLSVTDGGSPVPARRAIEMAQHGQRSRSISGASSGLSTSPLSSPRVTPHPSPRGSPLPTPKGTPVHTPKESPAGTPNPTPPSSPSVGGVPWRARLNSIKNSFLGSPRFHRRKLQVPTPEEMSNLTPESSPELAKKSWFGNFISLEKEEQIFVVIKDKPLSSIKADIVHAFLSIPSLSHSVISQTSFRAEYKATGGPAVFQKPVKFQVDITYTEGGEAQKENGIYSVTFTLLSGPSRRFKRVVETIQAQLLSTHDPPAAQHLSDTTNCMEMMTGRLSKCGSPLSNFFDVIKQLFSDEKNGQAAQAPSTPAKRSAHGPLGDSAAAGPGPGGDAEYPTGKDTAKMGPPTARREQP

**Q.** With NCCCC[C@H](NC(=O)[C@H](CC(=O)O)NC(=O)[C@H](CC(=O)O)NC(=O)[C@H](CC(=O)O)NC(=O)[C@H](CC(=O)O)NC(=O)[C@H](CC(=O)O)NC(=O)[C@@H](CC(=O)O)NC(=O)CCCCCCCn1cnc2c(Br)c(Br)c(Br)c(Br)c21)C(=O)O [TBBI-OcA-(D-Asp)-(L-Asp)5-(L-Lys)-OH] (X1-[dD]DDDDDK-OH) as the molecule, how does the remaining activity at 1 µM (ASK1) read?
**A.** 114%

**Q.** What about the remaining activity at 1 µM (MKK2) of the same molecule?
**A.** 66%

**Q.** And the remaining activity at 1 µM (TGFBR1)?
**A.** 98%

**Q.** What about the remaining activity at 1 µM (BRSK2) of the same molecule?
**A.** 75%
